The record followed here is publication PMC6435701.

In experiment [1] the target is ATAD3A K135E (Flag-tagged). Briefly: non-reducing western blot of ATAD3A dimer (with or without β-ME), densitometry. The conditions noted are these: HEK293 cells transfected for 48 h; at least 6 independent experiments; parent: est. 1.0; read off a plot. (Immunoblotting shows a protein as a band on a membrane.)
Another experiment has as its target Myc-tagged ATAD3A. Briefly: co-immunoprecipitation (IP anti-Flag, WB anti-Myc), densitometry. The conditions noted are these: HEK293 cells transfected for 48 h; five independent experiments; parent: est. 1.0; read off a plot.
For experiment [2], the target named is ATAD3A K135Q (Flag-tagged). Briefly: non-reducing western blot of ATAD3A dimer (with or without β-ME), densitometry. The conditions noted are these: HEK293 cells transfected for 48 h; at least 6 independent experiments; parent: est. 1.0; read off a plot.

As to “ATAD3A-Flag wildtype (in HEK293 cells) K135E”, the ratio to parent was found to be 2.3 in experiment [1] and 1.6 with Myc-tagged ATAD3A.
On to “ATAD3A-Flag wildtype (in HEK293 cells) K135Q”, for which the values for the ratio to parent (in experiment [2]; with Myc-tagged ATAD3A) were 0.8 and 0.58, respectively.
